Results on 8 molecules are retold here after US20220195068A1 (TENEOBIO, published 2022).

Substitutions are numbered along the chain they refer to.

Assay [1] has as its target T1, human PSMA (Prostate Specific Membrane Antigen, Glutamate Carboxypeptidase II) on cells (human, UniProt Q04609 1-750).
T1 construct: whole, on cells; the same molecule is used for all four PSMA positive cell lines; the cell line is named under assay; also called cell surface expressed PSMA; FOLH1
The assay can be described thus: flow cytometry cell binding, PC3-PSMA cells.

Assay [2] has as its target T1, human PSMA (Prostate Specific Membrane …). The assay can be described thus: flow cytometry cell binding, MDA-PCa-2b cells. A general note: In flow cytometry, cells or beads pass a laser one at a time.
Assay [3] has the same target. Briefly: flow cytometry cell binding, LNCAP cells.
Assay [4] shares this target. Briefly: cell-based or functional assay.
For assay [5] the target is unchanged. Briefly: flow cytometry cell binding, 22Rv1 cells.
Assay [6] has the same target. The assay can be described thus: flow cytometry on LNCaP cells. Here is the method: Briefly, 50,000 target cells were stained with a dilution series of purified UniAbs™ for 30 minutes at 4° C. Following incubation, the cells were washed twice with flow cytometry buffer (1X PBS, 1% BSA, 0.1% NaN₃) and stained with goat F(ab')₂ anti-human IgG conjugated to R-phycoerythrin (PE) (Southern Biotech, cat. #2042-09) to detect cell-bound antibodies. After a 20-minute incubation at 4° C., the cells were washed twice with flow cytometry buffer and the mean fluorescence intensity (MFI) was measured by flow cytometry. The MFI of cells stained with secondary antibody alone were used for determination of background signal and binding of each antibody was converted to fold over background. Binding to cynomolgus PSMA positive cells was determined using the same protocol with the following modifications: the target cells were from Freestyle 293-F cells (ThermoFisher R79007) transiently transfected to express the extracellular domain of cynomolgus PSMA. In some experiments EC50 values were calculated using GraphPad Prism 7.

T1 sequence (Q04609 whole entry): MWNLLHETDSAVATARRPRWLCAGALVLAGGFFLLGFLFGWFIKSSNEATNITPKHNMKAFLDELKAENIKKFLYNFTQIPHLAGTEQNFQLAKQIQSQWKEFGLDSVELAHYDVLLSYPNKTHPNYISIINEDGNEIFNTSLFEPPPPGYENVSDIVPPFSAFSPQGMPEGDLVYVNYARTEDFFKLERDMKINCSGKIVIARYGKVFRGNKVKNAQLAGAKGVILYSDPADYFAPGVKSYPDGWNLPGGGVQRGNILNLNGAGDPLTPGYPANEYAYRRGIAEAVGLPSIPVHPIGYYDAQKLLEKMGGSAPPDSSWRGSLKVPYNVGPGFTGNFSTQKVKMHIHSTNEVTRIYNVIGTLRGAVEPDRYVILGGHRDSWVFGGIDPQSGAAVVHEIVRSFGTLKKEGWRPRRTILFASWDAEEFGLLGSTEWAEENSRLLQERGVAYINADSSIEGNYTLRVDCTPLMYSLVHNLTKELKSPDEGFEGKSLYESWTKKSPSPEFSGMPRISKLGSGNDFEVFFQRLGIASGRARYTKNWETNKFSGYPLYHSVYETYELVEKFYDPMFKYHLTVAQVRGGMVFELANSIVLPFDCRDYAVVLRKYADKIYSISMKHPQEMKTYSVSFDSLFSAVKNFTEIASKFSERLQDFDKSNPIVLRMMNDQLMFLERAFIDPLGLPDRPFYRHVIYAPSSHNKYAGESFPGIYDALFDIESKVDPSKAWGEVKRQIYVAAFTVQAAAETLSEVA

B1: 346181xCD3 monoparatopic PSMAxCD3 bispecific antibody (bispecific antibody, human IgG4 S228P, kappa, F234A L235A)
heavy 1: QLQLQESGPGLVKPSETLSLTCTVSGGSISSSNYFWGWIRQSPGKGLEWIGSIDYSGYTYYNPSLKSRVTISVDTSKNQFSLKLSSVTAADTAVYNCARHKAATADFDYRGQGTLVTVSSESKYGPPCPPCPAPEAAGGPSVFLFPPKPKDTLMISRTPEVTCVVVDVSQEDPEVQFNWYVDGVEVHNAKTKPREEQFNSTYRVVSVLTVLHQDWLNGKEYKCKVSNKGLPSSIEKTISKAKGQPREPQVYTLPPSQEEMTKNQVSLSCAVKGFYPSDIAVEWESNGQPENNYKTTPPVLDSDGSFFLVSRLTVDKSRWQEGNVFSCSVMHEALHNHYTQKSLSLSLGK
heavy 2: EVQLVESGGGLVQPGRSLRLSCAASGFTFDDYAMHWVRQAPGKGLEWVSGISWNSGSIGYADSVKGRFTISRDNAKNSLYLQMNSLRAEDTALYYCAKDSRGYGDYRLGGAYWGQGTLVTVSSASTKGPSVFPLAPCSRSTSESTAALGCLVKDYFPEPVTVSWNSGALTSGVHTFPAVLQSSGLYSLSSVVTVPSSSLGTKTYTCNVDHKPSNTKVDKRVESKYGPPCPPCPAPEAAGGPSVFLFPPKPKDTLMISRTPEVTCVVVDVSQEDPEVQFNWYVDGVEVHNAKTKPREEQFNSTYRVVSVLTVLHQDWLNGKEYKCKVSNKGLPSSIEKTISKAKGQPREPQVYTLPPSQEEMTKNQVSLWCLVKGFYPSDIAVEWESNGQPENNYKTTPPVLDSDGSFFLYSRLTVDKSRWQEGNVFSCSVMHEALHNHYTQKSLSLSLGK
light: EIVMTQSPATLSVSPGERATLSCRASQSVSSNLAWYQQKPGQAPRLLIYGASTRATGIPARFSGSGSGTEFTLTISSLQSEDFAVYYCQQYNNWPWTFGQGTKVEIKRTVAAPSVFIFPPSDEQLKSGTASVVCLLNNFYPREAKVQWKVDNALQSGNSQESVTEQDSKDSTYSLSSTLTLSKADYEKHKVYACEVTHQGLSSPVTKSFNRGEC
notes: three-chain antibody-like molecule; also called monoparatopic molecule
What is called EC50 is the midpoint of the concentration-response curve. A high value points to lower potency in that assay. B1 had an EC50 in assay [1] of 30 nM. In assay [2], this molecule came in with a concentration for a half-maximal effect (EC50) of 28 nM. Also, in assay [3], the concentration for a half-maximal effect (EC50) stood at 17 nM. Further, in assay [4], the “IFNγ EC50, 22Rv1 cells” value was found to be 174 nM; the “IFNγ EC50, LNCAP cells” value turned out to be 63 nM; the “IFNγ EC50, MDA-PCa-2b cells” value turned out to be 116 nM; the “IFNγ EC50, PC3-PSMA cells” value worked out at 10.1 nM. Besides, in assay [4], the “IL-2 EC50, LNCAP cells” value is 575 nM; the “IL-2 EC50, MDA-PCa-2b cells” value was found to be 38.5 nM; the “IL-2 EC50, PC3-PSMA cells” value came out at 4.1 nM; the “Kill EC50, 22Rv1 cells, resting T-cells” value stood at 52.8 nM. For the same molecule, in assay [4], the “Kill EC50, LNCAP cells, resting T-cells” value worked out at 14.6 nM; the “Kill EC50, MDA-PCa-2b cells, resting T-cells” value came to 23.6 nM; the “Kill EC50, PC3-PSMA cells, resting T-cells” value came to 3.7 nM. Moreover, in assay [5], the EC50 was 58 nM.

B2: 350123xCD3 biparatopic PSMAxCD3 multi-specific antibody (bispecific antibody, human IgG4 S228P, kappa, F234A L235A)
heavy 1: QLQLQESGPGLVKPSETLSLTCTVSGGSISSSNYFWGWIRQSPGKGLEWIGSIDYSGYTYYNPSLKSRVTISVDTSKNQFSLKLSSVTAADTAVYNCARHKAATADFDYRGQGTLVTVSSGGGGSGGGGSQVQLVESGGGVVQPGRSLRLSCAASGFSFSRYGMHWVRQAPGKGLEGVAVIWYDGSNRYYADSVKGRFTISRDNSKNTLYLQMNSLRAEDTAVYYCAREPRIGYYYESSGYYSLDYRGQGTLVTVSSESKYGPPCPPCPAPEAAGGPSVFLFPPKPKDTLMISRTPEVTCVVVDVSQEDPEVQFNWYVDGVEVHNAKTKPREEQFNSTYRVVSVLTVLHQDWLNGKEYKCKVSNKGLPSSIEKTISKAKGQPREPQVYTLPPSQEEMTKNQVSLSCAVKGFYPSDIAVEWESNGQPENNYKTTPPVLDSDGSFFLVSRLTVDKSRWQEGNVFSCSVMHEALHNHYTQKSLSLSLGK
heavy 2: B1 heavy 2
light: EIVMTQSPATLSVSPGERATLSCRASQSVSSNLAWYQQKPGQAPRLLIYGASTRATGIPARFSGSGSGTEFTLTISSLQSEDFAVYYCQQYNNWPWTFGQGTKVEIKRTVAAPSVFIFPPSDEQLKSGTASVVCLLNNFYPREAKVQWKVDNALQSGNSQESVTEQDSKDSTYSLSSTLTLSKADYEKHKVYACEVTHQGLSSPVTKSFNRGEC
notes: also called biparatopic molecule
Consider B2, for which a half-maximal effect in assay [1] (EC50) was put at 6 nM. The same molecule had an EC50 in assay [2] of 2 nM. This molecule also registered an EC50 in assay [3] of 2 nM. In assay [4], the “IFNγ EC50, 22Rv1 cells” value is 380 nM; the “IFNγ EC50, LNCAP cells” value stood at 3.29 nM; the “IFNγ EC50, MDA-PCa-2b cells” value was 0.9 nM; the “IFNγ EC50, PC3-PSMA cells” value came to 1.01 nM. In assay [4], the “IL-2 EC50, LNCAP cells” value came to 3.73 nM; the “IL-2 EC50, MDA-PCa-2b cells” value amounted to 1.11 nM; the “IL-2 EC50, PC3-PSMA cells” value is 1.1 nM; the “Kill EC50, 22Rv1 cells, resting T-cells” value was found to be 0.42 nM. For the same molecule, in assay [4], the “Kill EC50, LNCAP cells, resting T-cells” value stood at 0.84 nM; the “Kill EC50, MDA-PCa-2b cells, resting T-cells” value is 0.41 nM; the “Kill EC50, PC3-PSMA cells, resting T-cells” value was found to be 0.4 nM. This molecule registered an EC50 in assay [5] of 3 nM.

B3: anti-PSMA heavy chain antibody clone ID 345497 (antibody, V domains shown)
VH: QVQLVESGGGVVQPGRSLRLSCAASGFSFSRYGMHWVRQAPGKGLEGVAVIWYDGSNRYYADSVKGRFTISRDNSKNTLYLQMNSLRAEDTAVYYCAREPRIGYYYESSGYYSLDYRGQGTLVTVSS
notes: heavy chain-only antibody (UniAb), no light chain; also called HCAb 345497
As for B3, the “fold over the background MFI signal” value in assay [6] was determined as 112 fold over background.

B4: anti-PSMA heavy chain antibody clone ID 325932 (antibody, V domains shown)
VH: B3 VH with R31S
notes: heavy chain-only antibody (UniAb), no light chain
On to B4, for which the “fold over the background MFI signal” value in assay [6] came to 64 fold over background.

B5: anti-PSMA heavy chain antibody clone ID 345508 (antibody, V domains shown)
VH: B3 VH with R31S, L45P, G47W
notes: as for B4
Consider B5, for which the “fold over the background MFI signal” value in assay [6] was found to be 55 fold over background.

B6: anti-PSMA heavy chain antibody clone ID 345505 (antibody, V domains shown)
VH: B3 VH with S28T, S30I, R31S
notes: as for B4
In the case of B6, in assay [6], the “fold over the background MFI signal” value is 59 fold over background.

B7: anti-PSMA heavy chain antibody clone ID 345510 (antibody, V domains shown)
VH: B3 VH with R31S, G47W, R58K, L79M
notes: as for B4
As to B7, in assay [6], the “fold over the background MFI signal” value worked out at 13 fold over background.

B8: anti-PSMA heavy chain antibody clone ID 345509 (antibody, V domains shown)
VH: B3 VH with V11L, R16G, R31S, R58K, L79M
notes: as for B4
Take B8: the “fold over the background MFI signal” value in assay [6] was determined as 37 fold over background.
